From the supplement of paper PMC10567573

B1: VPS39 (parent)
chain: TTLLKCYLHTNVALVAPLLRLENN

Variants of: B1
Experiment: protein stability index of a GFP-peptide fusion (GPS, HEK-293T) (PSI 1-6); higher = more stable
Conditions: c terminus: a fixed tail appended
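Further: lentivirally expressed fusions sorted by FACS into six bins by GFP to DsRed ratio, PSI derived from sequencing read proportions per bin multiplied by bin number.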

Protein stability index: each site, then its substitutions
K5: N 2.49, H 2.48, P 1.88, T 2.57, S 4.1
V15: T 2.11, D 1.31, I 2.17, E 1.35, W 2.17, N 2.07, H 2.17, C 1.65, F 2.62, P 3.16, R 1.85
R20: D 2.23, E 1.83, T 3.38, V 2.63, G 2.65, I 3.11, M 1.5, W 2.11, P 3.33, K 3.52, Y 3.2
L8: Q 2.14, S 1.44, T 2.5, M 4.41, A 2.49, G 1.57, P 1.13, V 2.7, D 1.75, F 4.45, E 1.85, I 3.7, C 1.07, R 2.35, K 1, H 1.82, W 2.17, N 1.98
H9: N 3.08, T 3.1, F 2.82, Y 1.63, P 1.59
C6: L 3.27, A 1.25, E 2.38, Q 3.64, K 2.11, P 2.19, I 1.15, T 2.56, N 1.91
E22: I 1.99, A 1.66, N 2.13, H 2.49, M 2.31, R 2.64, D 2.71, K 1.79, C 1.92, L 2.73
A13: V 3.55, K 2.63, M 2.14, R 1.57, W 3.55, D 1.36, P 2.2
N11: G 1.33, C 2.59, K 2.86, Q 4.1, H 3.65, I 1.85, D 4
L19: D 2.11, G 1.97, V 2.79, E 2.02, H 1.7, Q 1.46, C 1.35, T 2.11, P 1.52, W 2.61
P17: E 4.79, M 1.17, L 2.13, R 1.38
Y7: E 1.73, N 2.9, F 2.26, H 3.18, R 1.76, S 3.15, P 1.7, V 2.59, D 2.27
A16: M 2.02, G 2.87, N 2.16, E 2.57, P 3.28, T 2.94, R 2.05, H 3.78, D 3.39, S 5.08, W 1.72
L21: F 3.04, G 1.6, W 2.05, P 2.73, D 1.59, H 1.51, K 1.74, M 3.38, E 2.09, Q 2.14, I 2.16, Y 1.84, C 3.59, S 1.63, N 3.2, T 2.9
L14: E 1.57, Q 1.68, M 2.27, A 2.83, T 2.5, H 3.13, D 1.5, P 1.9, Y 3.67, N 2.16, I 3.28, V 2.25, F 1.55
V12: T 3.04, F 2.91, K 1.45, S 3.9, N 2.06, D 1.97, Q 1.95
T10: L 2.35, G 3.27, W 1.94, R 3.11, E 1.46, H 2.79, Y 2.73
L18: E 1.55, Y 2.16, T 2.51, M 3.28, P 2.27, K 2.08, F 2.06
